Residue numbers refer to the chain shown, from its start. In names and notes the source's numbering stands.
T1: human FcγRIIa type R extracellular domain with C-terminal His tag (human, UniProt P12318 34-217)
T1 construct: extracellular domain; also called FcγRIIaR; FcγRIIa(R)
T1 sequence (looked up): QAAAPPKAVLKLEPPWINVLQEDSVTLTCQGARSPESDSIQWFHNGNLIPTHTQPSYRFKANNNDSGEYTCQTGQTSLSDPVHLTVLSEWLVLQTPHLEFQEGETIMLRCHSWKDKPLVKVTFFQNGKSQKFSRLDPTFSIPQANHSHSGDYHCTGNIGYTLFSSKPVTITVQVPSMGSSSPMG

T2: human FcγRIIb extracellular domain with C-terminal His tag (human, UniProt P31994 43-217)
T2 construct: extracellular domain
T2 sequence (looked up): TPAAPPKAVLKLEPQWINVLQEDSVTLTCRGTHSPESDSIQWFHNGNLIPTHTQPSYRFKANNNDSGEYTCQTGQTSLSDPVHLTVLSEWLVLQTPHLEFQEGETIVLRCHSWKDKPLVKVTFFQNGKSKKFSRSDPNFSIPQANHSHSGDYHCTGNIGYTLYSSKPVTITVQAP

T3: human FcγRIIa type R (R131) extracellular domain with C-terminal His tag (human, UniProt P12318 34-217)
T3 construct: extracellular domain; also called FcγRIIaR; not shown: His tag at the C terminus
T3 sequence (looked up): T1 sequence (looked up)

T4: human FcγRIIb extracellular domain with C-terminal His tag (human, UniProt P31994 43-217)
T4 construct: extracellular domain; not shown: His tag at the C terminus
T4 sequence (looked up): T2 sequence (looked up)

T5: human FcγRIIb extracellular domain (human, UniProt P31994 43-217)
T5 construct: also called FcγIIB; not shown: His tag at the C terminus
T5 sequence: T2 sequence (looked up)

T6: human FcγRIIa type R extracellular domain (human, UniProt P12318 34-217)
T6 construct: also called FcγRIIaR; FcγRIIa(R); not shown: His tag at the C terminus
T6 chain: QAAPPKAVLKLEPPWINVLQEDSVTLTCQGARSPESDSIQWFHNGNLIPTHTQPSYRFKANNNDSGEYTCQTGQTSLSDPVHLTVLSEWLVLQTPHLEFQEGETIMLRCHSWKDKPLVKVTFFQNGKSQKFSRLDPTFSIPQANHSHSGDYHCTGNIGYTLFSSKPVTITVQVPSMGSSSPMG

B1: IL6R-BP493/IL6R-L (antibody, human IgG1, kappa)
heavy: QVQLQESGPGLVKPSETLSLTCAVSGHSISHDHAWSWVRQPPGEGLEWIGFISYSGITNYNPSLQGRVTISRDNSKNTLYLQMNSLRAEDTAVYYCARSLARTTAMDYWGEGTLVTVSSASTKGPSVFPLAPSSKSTSGGTAALGCLVKDYFPEPVTVSWNSGALTSGVHTFPAVLQSSGLYSLSSVVTVPSSSLGTQTYICNVNHKPSNTKVDKKVEPKSCDKTHTCPPCPAPELLGGDSVFLFPPKPKDTLMISRTPEVTCVVIDVAEEDGEVKFNWYVDGVEVHNAKTKPREEQDNSTYRVVSVLTVLHQDWLNGKEYKCKVSNKALPAPIEKTISKAKGQPREPQVYTLPPSRDELTKNQVSLTCLVKGFYPSDIAVEWESNGQPENNYKTTPPVLDSDGSFFLYSKLTVDKSRWQQGNVFSCSVMHEALHNHYTQESLSLSP
light: not shown
notes: copies: 2 + 2
B2: IL6R-BP500/IL6R-L (antibody, human IgG1, kappa)
heavy: B1 heavy with G239D
light: not shown
notes: copies: 2 + 2
B3: IL6R-BP492/IL6R-L (antibody, human IgG1, kappa)
heavy: B1 heavy with D298Y
light: not shown
notes: copies: 2 + 2
B4: IL6R-BP557/IL6R-L (antibody, human IgG1, kappa)
heavy: B1 heavy with G239D, I266V, A269G, E270D, A332R
light: not shown
notes: copies: 2 + 2
B5: IL6R-BP541/IL6R-L (antibody, human IgG1, kappa)
heavy: B1 heavy with E235D, G239D, I266V, A269S, E270D, K276Q, A332R
light: not shown
notes: K274Q introduced into IL6R-BP230; copies: 2 + 2
B6: IL6R-BP546/IL6R-L (antibody, human IgG1, kappa)
heavy: B1 heavy with E235D, G239D, I266V, A269S, E270D, A332R, L360M
light: not shown
notes: L358M introduced into IL6R-BP230; copies: 2 + 2
B7: IL6R-BP543/IL6R-L (antibody, human IgG1, kappa)
heavy: B1 heavy with E235D, G239D, I266V, A269S, E270Q, A332R
light: not shown
notes: H268Q introduced into IL6R-BP230 (takes the place of H268D); copies: 2 + 2
B8: IL6R-BP548/IL6R-L (antibody, human IgG1, kappa)
heavy: B1 heavy with E235D, G239D, I266V, A269S, E270D, A332R, Q421E
light: not shown
notes: Q419E introduced into IL6R-BP230; copies: 2 + 2
B9: IL6R-BP544/IL6R-L (antibody, human IgG1, kappa)
heavy: B1 heavy with E235D, G239D, I266V, A269S, E270D, A332R, R357Q
light: not shown
notes: R355Q introduced into IL6R-BP230; copies: 2 + 2
B10: IL6R-BP564/IL6R-L (antibody, human IgG1, kappa)
heavy: B1 heavy with G239D, I266V, A269S, E274D, A332R
light: not shown
notes: copies: 2 + 2
B11: IL6R-BP560/IL6R-L (antibody, human IgG1, kappa)
heavy: B1 heavy with I266V, A269G, A332R
light: not shown
notes: anti-human IL-6 receptor IgG1 variant; copies: 2 + 2
B12: IL6R-BP562/IL6R-L (antibody, human IgG1, kappa)
heavy: B1 heavy with G239D, I266V, A269S, E270D, E274D, A332R
light: not shown
notes: copies: 2 + 2

molecular target: T7, human FcγRIa extracellular domain with C-terminal His tag (human, UniProt P12314 16-292); test: SPR (Biacore)
T7 construct: extracellular domain
T7 sequence (P12314 16-292): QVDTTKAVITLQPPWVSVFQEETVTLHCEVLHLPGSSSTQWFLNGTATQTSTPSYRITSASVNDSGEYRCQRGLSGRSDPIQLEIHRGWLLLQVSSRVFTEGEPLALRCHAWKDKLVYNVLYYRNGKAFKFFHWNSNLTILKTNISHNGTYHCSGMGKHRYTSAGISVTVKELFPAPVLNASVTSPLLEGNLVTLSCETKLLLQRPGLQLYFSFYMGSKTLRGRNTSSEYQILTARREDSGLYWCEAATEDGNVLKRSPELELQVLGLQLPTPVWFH

Binder	Kd
B1	0.82 nM
B2	2.3 nM
B3	0.79 nM

molecular target: T1, human FcγRIIa type R extracellular …; test: SPR (Biacore)

Binder	Kd
B4	850 nM
B2	720 nM
B3	920 nM

molecular target: T2, human FcγRIIb extracellular domain with …; test: SPR (Biacore)

Binder	Kd
B1	21 nM
B4	20 nM
B2	24 nM
B3	24 nM

molecular target: T2, human FcγRIIb extracellular domain with …; test: SPR (Biacore), ratio of KDs

Binder	KD(IIaH)/KD(IIb)	KD(IIaR)/KD(IIb)
B2	1030	29.9
B3	678	38.8

molecular target: T1, human FcγRIIa type R extracellular …; test: SPR (Biacore), parent IL6R-B3/IL6R-L

Binder	KD(IIaR) parent/KD(IIaR) altered polypeptide
B2	1.5
B3	1.2

molecular target: T2, human FcγRIIb extracellular domain with …; test: SPR (Biacore), parent IL6R-B3/IL6R-L

Binder	KD(IIb) parent/KD(IIb) altered polypeptide
B2	128
B3	131

molecular target: T1, human FcγRIIa type R extracellular …; test: SPR (Biacore); worded summary of Table 28

Binder	FcγRIIaR binding as compared to IL6R-B3/IL6R-L
B1	≤ 1.5 times
B4	≤ 1.5 times
B2	≤ 1.5 times
B3	≤ 1.5 times

molecular target: T2, human FcγRIIb extracellular domain with …; test: SPR (Biacore); worded summary of Table 28

Binder	FcγRIIb-binding activity as compared to IL6R-B3/IL6R-L
B1	≥ 100 times
B4	≥ 100 times
B2	≥ 100 times
B3	≥ 100 times

molecular target: T8, human FcγRIa extracellular domain with C-terminal His tag (human, UniProt P12314 16-292); test: SPR (Biacore), antibody captured, FcγR analyte
T8 construct: not shown: His tag at the C terminus
T8 sequence (P12314 16-292): as above

Binder	Kd
B5	11 nM
B6	9 nM
B7	23 nM
B8	12 nM
B9	9.8 nM

molecular target: T3, human FcγRIIa type R (R131) …; test: SPR (Biacore), antibody captured, FcγR analyte

Binder	Kd
B5	450 nM
B6	500 nM
B7	560 nM
B8	500 nM
B9	480 nM

molecular target: T4, human FcγRIIb extracellular domain with …; test: SPR (Biacore), antibody captured, FcγR analyte

Binder	Kd
B5	16 nM
B6	15 nM
B7	20 nM
B8	19 nM
B9	17 nM

molecular target: T5, human FcγRIIb extracellular domain; test: fold against IL6R-B3/IL6R-L, from SPR KD values

Binder	KD(IIb) of the parent polypeptide/KD(IIb) of the altered polypeptide
B10	141
B11	16.8
B12	131

Molecular target: T6, human FcγRIIa type R extracellular …
Test: fold against IL6R-B3/IL6R-L, from SPR KD values

Binder	KD(IIaR) of the parent polypeptide/KD(IIaR) of the altered polypeptide
B10	1.9
B11	0.3
B12	1.6

molecular target: T4, human FcγRIIb extracellular domain with …; test: SPR (Biacore); KD for FcγRIIaR divided by KD for FcγRIIb

Binder	KD(IIaR)/KD(IIb)
B5	27.8
B6	32.8
B7	27.3
B8	26.2
B9	28.8

molecular target: T3, human FcγRIIa type R (R131) …; test: SPR (Biacore); KD of IL6R-B3/IL6R-L divided by KD of this antibody

Binder	KD(IIaR) of parent polypeptide/KD(IIaR) of altered polypeptide
B5	2.4
B6	2.2
B7	1.9
B8	2.2
B9	2.2

molecular target: T4, human FcγRIIb extracellular domain with …; test: as above

Binder	KD(IIb) of parent polypeptide/KD(IIb) of altered polypeptide
B5	190
B6	205
B7	152
B8	162
B9	184

molecular target: T5, human FcγRIIb extracellular domain; test: ratio of the SPR KD for FcγRIIaH to the KD for FcγRIIb (selectivity)

Binder	KD(IIaH)/KD(IIb)
B10	454
B11	168
B12	466

molecular target: T5, human FcγRIIb extracellular domain; test: ratio of the SPR KD for FcγRIIaR to the KD for FcγRIIb (selectivity)

Binder	KD(IIaR)/KD(IIb)
B10	26.2
B11	22.8
B12	29

molecular target: T5, human FcγRIIb extracellular domain; test: SPR (Biacore), antibody captured on chip, FcγR extracellular domain as analyte, 25 C

Binder	Kd
B10	22 nM
B11	180 nM
B12	24 nM

molecular target: T9, human FcγRIa extracellular domain (human, UniProt P12314 16-292); test: as above
T9 construct: also called CD64; not shown: His tag at the C terminus
T9 sequence (P12314 16-292): as above

Binder	Kd
B10	31 nM
B11	5.6 nM
B12	25 nM

Molecular target: T6, human FcγRIIa type R extracellular …
Test: as above

Binder	Kd
B10	580 nM
B11	4200 nM
B12	680 nM
